Residue numbers refer to the chain shown, from its start.

A word on the EC50: it is the concentration giving half of the maximal effect. A higher EC50 goes with a less potent agent.

T1: CD25 on CD25+ cells (SUDHL-1, HEK IL-2 reporter cells, primary human regulatory T cells) (human, UniProt P01589 22-272)
T1 construct: whole, on cells; also called IL-2Ralpha
T1 sequence (looked up): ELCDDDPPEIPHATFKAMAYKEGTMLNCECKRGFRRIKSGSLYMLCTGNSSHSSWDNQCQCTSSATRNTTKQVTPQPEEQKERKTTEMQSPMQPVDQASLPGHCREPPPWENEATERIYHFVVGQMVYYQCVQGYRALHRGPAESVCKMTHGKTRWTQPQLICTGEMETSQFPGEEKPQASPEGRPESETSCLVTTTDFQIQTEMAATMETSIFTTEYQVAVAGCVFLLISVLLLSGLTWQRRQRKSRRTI

B1: D5 (human IgG1 reformatted) (antibody, V domains shown)
VH: QVQLQQSGAELVRPGTSVKISCKASGYTFTNYWLGWVKQRPGHGLEWIGDIYPGGGYTNYNEKFKGKATLTADTSSSTAYMQLSSLTSEDSAVYFCARVTPASWGQGTSLTVSS
VL: DIVMTQSQKFMSTSVGDRVSVTCKASQNVGTNVAWYQQKPGQSPKALIYSASYRYSGVPDRFTGSGSGTDFTLTISNVQSEDLAEYFCQQYNSYPYTFGGGTKLEMK
B2: AH04524 (human IgG1 reformatted) (antibody, V domains shown)
VH: QIQLQQSGAELVRPGTSVKMSCKAAGYTFTNYWIGWVKQRPGHGLEWIGDIHPGGDYSNYNEKFKGKATLTADTSSSTAYMSLSSLTSEDSAIYYCTSRNFAYWGQGTLVTVSA
VL: B1 VL with M106I
notes: also called AH4524
B3: AH04509 (human IgG1 reformatted) (antibody, V domains shown)
VH: B2 VH with I51F, H52Y, S58I, S82Q, L109P, A114S
VL: B1 VL with I2T, V3T, M4V, K9R, A46P, S76N, S93N, Y94S, Y96L, M106I
notes: also called AH4509
B4: AH05247 (human IgG1 reformatted) (antibody, V domains shown)
VH: QVQLQQSGADLMKPGASVKMSCRASGYTFSNYWIEWIKQRPGHGLEWIGEILPGSGFTNYNENFKGKATFTADTSSNTTYMLLSSLSSEDSAVYYCARGGTSVVHFDSWGQGTTLTVSS
VL: B1 VL with Y96L, M106I
B5: BP003-T2P1E3 (human IgG1 reformatted) (antibody, V domains shown)
VH: B2 VH with D56G, S58T, S82Q, L109P, A114S
VL: B1 VL with M4L, M106I
B6: BP003-T2P1D10 (human IgG1 reformatted) (antibody, V domains shown)
VH: B1 VH with V2I, S7P
VL: B1 VL with M4I, F62L, S93R, M106I
B7: AH04505 (human IgG1 reformatted) (antibody, V domains shown)
VH: B2 VH with Q1D, I2V, D56G, S58T, S82Q, D90G
VL: B1 VL with I2T, V3T, M4V
notes: also called AH4505
B8: AH04507 (human IgG1 reformatted) (antibody, V domains shown)
VH: B2 VH with I2V, D56G, S58I, N59D, K65T, S82Q, T97V, Y103K
VL: B1 VL with I2T, V3T, M4V, M106I
B9: AH04525 (human IgG1 reformatted) (antibody, V domains shown)
VH: B2 VH with I2V, V37I, S58T, S75F, S82Q, S98G, A114S
VL: B1 VL with I2N, M4L
notes: also called AH4525
B10: AH04522 (human IgG1 reformatted) (antibody, V domains shown)
VH: B2 VH with D56G, S58T, S82Q
VL: B1 VL with I2T, V3T, M4V, S26G, M106I
B11: BP003-T2P1C4 (human IgG1 reformatted) (antibody, V domains shown)
VH: B1 VH with S109T, L110V
VL: B1 VL with V3Q, T13A
B12: AH04503 (human IgG1 reformatted) (antibody, V domains shown)
VH: B2 VH with I2V, S7P, T30S, D56G, S58I, K65T, S82Q, T97V, Y103N
VL: B1 VL with V3Q, Y96W, M106I
notes: also called AH4503
B13: AH04523 (human IgG1 reformatted) (antibody, V domains shown)
VH: B2 VH with D56S, S58T, K63N, L70F, A79T, S82Q, Y95F, Y103K, L109P, A114S
VL: B1 VL with M4L, M106I
notes: also called AH4523
B14: AH04511 (human IgG1 reformatted) (antibody, V domains shown)
VH: B2 VH with T30S, D56G, S58I, K65T, S82Q, T97V, Y103N
VL: B1 VL with T5S, M106I
notes: also called AH4511
B15: AH04501 (human IgG1 reformatted) (antibody, V domains shown)
VH: B2 VH with I2V, S7P, S82N
VL: B1 VL with I2V, S7T, M11T, M106I
notes: also called AH4501
B16: AH04527 (human IgG1 reformatted) (antibody, V domains shown)
VH: B2 VH with I2V, D56G, S58I, N59D, K65T, S82Q, T97V, Y103K
VL: B1 VL with I2V, M106I
B17: AH05274 (human IgG1 reformatted) (antibody, V domains shown)
VH: B1 VH with V37I
VL: B1 VL with V3Q, M106I
B18: D17 (human IgG1 reformatted) (antibody, V domains shown)
VH: B1 VH with V2I, S109T, S114A
VL: B1 VL with V3L, M4L, Y96L, M106I
B19: AH04526 (human IgG1 reformatted) (antibody, V domains shown)
VH: B2 VH with I2V, S82N, L109P, A114S
VL: B1 VL with I2T, V3T, M4V
B20: AH04502 (human IgG1 reformatted) (antibody, V domains shown)
VH: B2 VH with D56G, S58T, Y80D, S82Q
VL: B1 VL with T31I, M106I
notes: also called AH4502
B21: AH04518 (human IgG1 reformatted) (antibody, V domains shown)
VH: B2 VH with I2V, G44D, S82N
VL: B1 VL with V3L, M4L, M106I
notes: also called AH4518
B22: AH05259 (human IgG1 reformatted) (antibody, V domains shown)
VH: QVQLQQSGAELVRPGVSVKISCKGSGYTFTDYAMHWVKQSHAKSLEWIGVISTYSGDVSYNQKFKGKATMTVDKSSSTAYMELARLTSEDSAIYYCARGVTFDSWGQGTSLTVSS
VL: DIQMTQTPASLSASVGETVTITCRASENIYSFLEWFQQKQGKSPQLLVYNAKTLAEGVPSRFSVSGSGTQFSLKINSLQPEDFGSYYCQHHYGIPYTFGGGTKLEIK
B23: AH05257 (human IgG1 reformatted) (antibody, V domains shown)
VH: B22 VH with V18L, K38R, V58A, S59I, M81L, S104Y, S110T, S115A
VL: DIVMTQSTSSLSASLGDRVTISCRASQDISNYLSWYQQKPDGTIKLLIYYTSRLHSGVSSRFSGSGSGTDYSLTISNLEQEDFATYFCQQGHTLPPTFGGGTKLEIK
B24: AH05268 (human IgG1 reformatted) (antibody, V domains shown)
VH: B22 VH with V18L, K38R, V58A, S59L, M81L, E89D, S104Y, S110T
VL: DVQMTQSPSSMYASLGERVTFTCKASQDINRYLSWFQQKPGKSPKTLIYRANRLVDGVPSRFSGSGSGQNYSLTISSLEYEDMGIYYCLQYDEFPYTFGGGTKLEIK
B25: AH05258 (human IgG1 reformatted) (antibody, V domains shown)
VH: B22 VH with V2I, S110T
VL: DIVMTQSHKFMSTSVGDRVSITCKASQDVSTAVAWYQQKPGQSPKLLIYSASYRYTGVPDRFTGSGSGTDFTFTISSVQAEDLAVYYCQQHYSTPFTFGSGTKLEIK
B26: AH05271 (human IgG1 reformatted) (antibody, V domains shown)
VH: B22 VH with I93T, S110T
VL: DIQMTQTPASLAASVGETVTITCRASENIYFSLAWYQQKQGKSPQLLIYNANTLEDGVPSRFSGSGSGTQFSMKINNMQPEDTATYFCKQAYDVPWTFGGGTKLEIK
B27: D36 (human IgG1 reformatted) (antibody, V domains shown)
VH: B22 VH with S7P, V18L, K38R, V58A, S59L, M81L, S104Y, S110T
VL: B22 VL with I2V, Q3V, T7S, I29S, F32Y, F36Y, V64G, S85T, I94T, I106M
B28: AH05256 (human IgG1 reformatted) (antibody, V domains shown)
VH: QVQLQQPGAELAKPGASVKMSCKASGYTFTRYWIHWVKQRPGQDLEWIGYINPRTDYTEYNQKFKDKATLTADKSSSTAYMQLSSLTSDDSAVYYCARHGYFDYWGQGTTLTVSS
VL: DIQMTQTTSSLSASLGDRVTISCRASQDISNYLNWYQQKPDGTVKLLIYHTSRLQSGVPSRFTGSGSGTDYSLTISNLEQEDIATYFCQQSNSLPPTFGGGTKLEIK
B29: AH04750 (human IgG1 reformatted) (antibody, V domains shown)
VH: QVQLQQPGAEMAKPGASVKMSCKASGYTSTAYWIHWVKQRPGQGLEWIGYITPSTGYTEYNQKFEDKATLTADKSSNTAYMQLNSLTSEDSAVYYCARGGYFDYWGQGTTVTVSS
VL: B28 VL with H50Y, Q55H, T63S, S91G, S93T, I106M
B30: AH05251 (human IgG1 reformatted) (antibody, V domains shown)
VH: EVRLQQSGAELVRSGASVKLSCTASGFNIKDYYIHWVKQRPEQGLEWIGWIDPDNGETEYAPKFQGKATMTADTSSNTAHLQLSSLTSEDTAVYYCTVFWYGNNYAGFAYWGQGTLVTVSS
VL: DVVMTQTPLSLPVNLGDQASISCRSSQSIVHSNGNTYLEWYLQKPGQSPKLLIYKVSNRFSGVPDRFSGSGSGTDFTLKISRVEAEDLGIYYCFQGSHVPPTFGGGTKLEIK
B31: BP003-T2P1D7 (human IgG1 reformatted) (antibody, V domains shown)
VH: B30 VH with E1Q, V2A, R3Y, S121A
VL: B30 VL with M4L, N14S, R82K, I90V
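Further: antibody binding to cells read as median fluorescence intensity of an AF647 anti-human Fc secondary, DAPI+ dead cells excluded, 20 min on ice, 5-fold dilutions from 10 ug/mL.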

This assay deals with T1, CD25 on CD25+ cells (SUDHL-1, HEK IL-2 …). Description: flow cytometry, dose response on CD25+ SUDHL-1 cells. (In general: In flow cytometry, cells or beads pass a laser one at a time.)
Description: For each cell line, 100,000 cells were plated in a 96 well round bottom plate in cell buffer (PBS+2% HI FBS) and centrifuged. Antibody concentrations from 1-10 ug/mL were used to test the binding of each antibody. Cell were resuspended in 100 uL of antibodies/well and incubated for 20 minutes on ice. After incubation, cells were centrifuged at 300×g for 5 minutes at room temperature, and resuspended and washed with ice cold cell buffer. Cells were then stained with an anti-human Fc secondary antibody conjugated to AF647 (Biolegend) and incubated on ice for 20 min in the dark. Cells were centrifuged, washed and resuspended in cold cell buffer with DAPI and analyzed using flow cytometry (Cytoflex, Becton Dickinson). DAPI+ cell were excluded from analysis. The mean fluorescence intensity was calculated using the median (FlowJo, TreeStar).
Regarding B1, the EC50 was determined as 0.603 µg/mL.
B2 returned an EC50 of 0.116 µg/mL.
Regarding B3, the midpoint of the response, the EC50, lay at 0.121 µg/mL.
In turn, B4 displayed an EC50 of 0.0977 µg/mL.
Turning to B5, it took 0.125 µg/mL to reach a half-maximal effect (EC50).
In the case of B6, the EC50 stood at 0.165 µg/mL.
The molecule B7 returned an EC50 of 0.106 µg/mL.
For the molecule B8, the EC50 came to 0.089 µg/mL.
B9 had an EC50 of 0.109 µg/mL.
In turn, B10 showed an EC50 of 0.11 µg/mL.
B11: the response was half-maximal at 0.294 µg/mL (EC50).
The same measure for B12: 0.145 µg/mL; for B13: 0.108 µg/mL.
In turn, B14 had an EC50 of 0.108 µg/mL.
With B15, the EC50 was 0.159 µg/mL.
Take B16: the EC50 is 0.0959 µg/mL.
B17 had an EC50 of 0.228 µg/mL.
On to B18, for which the EC50 came to 0.0957 µg/mL.
For B19, the EC50 was 0.164 µg/mL.
On to B20, for which the half-maximal effective concentration (EC50) turned out to be 0.109 µg/mL.
In turn, B21 registered an EC50 of 0.114 µg/mL.
The same measure for B22: 0.121 µg/mL.
Molecule B23 returned an EC50 of 0.113 µg/mL.
B24 yielded an EC50 of 0.108 µg/mL.
B25 had an EC50 of 0.184 µg/mL.
Under B26 stands 0.25 µg/mL; under B27, 1.49 µg/mL; under B28, 0.0715 µg/mL.
Molecule B29 came in with an EC50 of 0.107 µg/mL.
B30 gave an EC50 of 0.132 µg/mL.
Take B31: a half-maximal response (EC50) required 0.125 µg/mL.

The record behind these values is patent publication US20250122301A1 (IBIO, published 2025).
